Laboratory results taken from patent publication US20260137822A1 (ABDERA THERAPEUTICS, published 2026).

T1: DLL3 on cells (SHP-77, NCI-H82, HEK-DLL3) (UniProt Q9NYJ7 27-618)
T1 construct: whole, on cells; also called DLL3-positive cell lines
T1 sequence (looked up): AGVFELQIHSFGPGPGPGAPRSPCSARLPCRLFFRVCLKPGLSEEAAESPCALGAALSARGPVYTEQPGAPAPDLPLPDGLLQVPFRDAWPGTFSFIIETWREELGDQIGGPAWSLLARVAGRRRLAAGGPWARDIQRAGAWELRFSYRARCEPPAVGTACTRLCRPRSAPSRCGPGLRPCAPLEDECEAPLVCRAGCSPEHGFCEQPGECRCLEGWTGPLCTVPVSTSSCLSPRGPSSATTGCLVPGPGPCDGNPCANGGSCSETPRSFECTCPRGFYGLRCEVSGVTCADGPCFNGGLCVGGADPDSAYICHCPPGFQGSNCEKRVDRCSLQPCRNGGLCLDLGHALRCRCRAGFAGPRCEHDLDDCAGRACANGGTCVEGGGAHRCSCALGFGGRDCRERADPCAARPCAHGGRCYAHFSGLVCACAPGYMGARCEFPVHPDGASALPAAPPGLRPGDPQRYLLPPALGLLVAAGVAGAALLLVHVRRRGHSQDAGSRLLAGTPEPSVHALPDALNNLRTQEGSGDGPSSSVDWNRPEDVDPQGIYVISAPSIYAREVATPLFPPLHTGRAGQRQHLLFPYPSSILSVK

T2: human DLL3.FLAG (Adipogen #AG-40B-0151, amino acid 27-466) (human, UniProt Q9NYJ7 27-466)
T2 construct: range 27-466; Carries a FLAG tag
T2 sequence (looked up): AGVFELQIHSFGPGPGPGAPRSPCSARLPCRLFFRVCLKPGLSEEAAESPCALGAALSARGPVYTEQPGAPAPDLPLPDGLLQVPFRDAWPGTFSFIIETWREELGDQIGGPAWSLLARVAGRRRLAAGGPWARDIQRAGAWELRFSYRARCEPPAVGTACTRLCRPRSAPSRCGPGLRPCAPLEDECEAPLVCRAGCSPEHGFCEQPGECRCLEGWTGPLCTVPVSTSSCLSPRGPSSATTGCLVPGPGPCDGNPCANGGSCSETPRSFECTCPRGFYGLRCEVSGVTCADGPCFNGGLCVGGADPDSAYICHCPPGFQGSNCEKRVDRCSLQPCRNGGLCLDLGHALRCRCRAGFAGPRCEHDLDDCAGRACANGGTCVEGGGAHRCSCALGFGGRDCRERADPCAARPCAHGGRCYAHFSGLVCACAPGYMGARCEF

T3: human DLL3 (recombinant antigen) (human, UniProt Q9NYJ7 27-492, limits assumed)
T3 construct: also called hDLL3
T3 sequence (looked up): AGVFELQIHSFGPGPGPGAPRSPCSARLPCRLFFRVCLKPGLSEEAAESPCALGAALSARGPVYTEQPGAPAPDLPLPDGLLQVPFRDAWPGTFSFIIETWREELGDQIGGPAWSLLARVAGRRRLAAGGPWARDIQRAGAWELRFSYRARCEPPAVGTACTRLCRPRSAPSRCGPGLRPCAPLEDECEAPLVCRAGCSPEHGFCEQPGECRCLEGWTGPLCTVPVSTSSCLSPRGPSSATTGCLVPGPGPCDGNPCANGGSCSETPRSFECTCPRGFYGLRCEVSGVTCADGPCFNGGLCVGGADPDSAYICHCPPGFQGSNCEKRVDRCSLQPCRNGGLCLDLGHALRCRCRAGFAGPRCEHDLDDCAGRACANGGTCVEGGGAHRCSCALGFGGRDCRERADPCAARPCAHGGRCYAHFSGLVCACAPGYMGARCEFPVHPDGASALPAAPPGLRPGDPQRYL

T4: mouse DLL3 (recombinant antigen) (mouse, UniProt O88516 25-477, limits assumed)
T4 construct: also called mDLL3
T4 sequence (looked up): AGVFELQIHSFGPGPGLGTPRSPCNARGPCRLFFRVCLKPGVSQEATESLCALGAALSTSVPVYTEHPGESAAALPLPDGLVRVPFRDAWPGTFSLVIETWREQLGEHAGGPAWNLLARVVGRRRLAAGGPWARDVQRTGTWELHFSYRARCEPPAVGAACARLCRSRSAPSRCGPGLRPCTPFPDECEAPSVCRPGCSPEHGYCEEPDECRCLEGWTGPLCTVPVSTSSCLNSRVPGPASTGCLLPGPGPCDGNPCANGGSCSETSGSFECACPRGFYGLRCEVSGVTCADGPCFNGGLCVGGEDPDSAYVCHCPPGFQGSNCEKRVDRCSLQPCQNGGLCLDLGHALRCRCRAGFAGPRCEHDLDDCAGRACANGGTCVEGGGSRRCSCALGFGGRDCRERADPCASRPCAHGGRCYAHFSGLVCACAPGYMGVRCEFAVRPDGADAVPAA

B1: Rovalpituzumab (Creative Biolabs #TAB-216CL) (antibody, V domains shown)
VH: QVQLVQSGAEVKKPGASVKVSCKASGYTFTNYGMNWVRQAPGQGLEWMGWINTYTGEPTYADDFKGRVTMTTDTSTSTAYMELRSLRSDDTAVYYCARIGDSSPSDYWGQGTLVTVSS
VL: EIVMTQSPATLSVSPGERATLSCKASQSVSNDVVWYQQKPGQAPRLLIYYASNRYTGIPARFSGSGSGTEFTLTISSLQSEDFAVYYCQQDYTSPWTFGQGTKLEIK
B2: DLL3 VHH (VHH-Fc control) (Fc fusion, not shown: a dimerising Fc or GST)
chain: EVQLVESGGGEVQPGGSLRLSCAASGSIFSINAMGWYRQAPGKQRELVAGFTGDTNTIYAESVKGRFTISRDNAKNTVYLQMSSLRAEDTAVYYCAADVQLFSRDYEFYWGQGTLVTVKP

What was measured:
[1] = target: T1, DLL3 on cells (SHP-77, NCI-H82, …); assay: flow cytometry, SHP-77 cells
Method: (§1) VHH-Fcs were screened for binding to a range of target-positive cancer cell lines by flow cytometry. All cell lines were sourced from ATCC unless otherwise noted, and cultured according to manufacturers instructions and recommended media. […] HER2-negative cell lines tested included SHP-77. […] Primary antibodies diluted in same manner as for ELISA were added to cells and incubated for 1 hour on ice. […] Following two further washes, cells were resuspended, and analyzed by flow cytometry on the iQue screener platform (Intellicyt), and data was processed with Forecyt, according to standard protocols.
(§2) Binding of VHH-Fc conjugates was therefore tested, similar to as described above.

[2] = target: T1, DLL3 on cells (SHP-77, NCI-H82, …); assay: flow cytometry, HEK-DLL3 cells
Method: as §1, §2

[3] = target: T2, human DLL3.FLAG (Adipogen #AG-40B-0151, …); assay: ELISA on coated hDLL3-Flag, A450nm against nM antibody
Method: The VHH-Fcs were assessed by ELISA for binding to Target soluble protein—human, murine and cynomolgous orthologs as appropriate, according to standard protocols. Antigens were sourced commercially or produced by cloning known antigen sequences (Uniprot) into mammalian expression vectors with a HIS, FLAG or equivalent tag for purification and detection purposes. A commercially available control anti-target IgG was included. […] The color development was stopped with 1 M HCl (50 l). Optical density (OD) was measured at 450 nm using Spectromax plate reader and data were processed using SoftMaxPro.

[4] = target: T1, DLL3 on cells (SHP-77, NCI-H82, …); assay: flow cytometry on SHP-77 cells (DLL3-positive), MFI against nM antibody
Method: as §1

[5] = target: T5, human FOLR1 (recombinant antigen) (human, UniProt P15328 25-234, limits assumed); assay: ELISA on hFOLR1
T5 construct: also called hFOLR1

[6] = target: T6, mouse FOLR1 (recombinant antigen) (mouse, UniProt P35846 25-232, limits assumed); assay: ELISA on mFOLR1
T6 construct: also called mFOLR1

[7] = target: T3, human DLL3 (recombinant antigen); assay: BLI (Octet), VHH-Fc captured on AHC biosensor, hDLL3 as analyte
Method: (§3) Antibody affinity was assessed using Octet Red96e (ForteBio). […] Each cycle was performed with orbital shake speed of 1,000 rpm. […] A set of AHC biosensors was dipped in kinetics buffer for baseline step of 60s. Anti-Target VHH-Fc (5 μg/mL, in kinetics buffer) was loaded onto the biosensors for 240 s followed by a second baseline step of 30 s. The IgG captured sensors were dipped into buffer for single reference subtraction to compensate natural dissociation of capture IgG. Each biosensor was then dipped into corresponding concentration of target protein (human, murine or cynomolgus monomeric protein) for 600 s, followed by 1800 s of dissociation time in kinetics buffer, or conditions as optimized. A new set of AHC biosensors was used for every VHH-Fc. The data was analysed by global fit 1:1 model for the association and dissociation step, (Octet software version v11.0).
(§4) AHC Octet biosensors were used to capture tetramer/VHH-Fc and then dipped into antigen.

[8] = target: T4, mouse DLL3 (recombinant antigen); assay: BLI (Octet), VHH-Fc captured on AHC biosensor, mDLL3 as analyte
Method: as §3, §4

[9] = target: T7, FOLR1 on cells (OVCAR3, OV-90) (UniProt P15328 25-234); assay: flow cytometry on FOLR1 expressing OV-90 cells, Geomeans RL1-H against Conc (nM) [top panel]
T7 construct: whole, on cells; also called FOLR1-positive OVCAR3 cells; FOLR1 expressing OV-90 cells
T7 sequence (P15328 25-234): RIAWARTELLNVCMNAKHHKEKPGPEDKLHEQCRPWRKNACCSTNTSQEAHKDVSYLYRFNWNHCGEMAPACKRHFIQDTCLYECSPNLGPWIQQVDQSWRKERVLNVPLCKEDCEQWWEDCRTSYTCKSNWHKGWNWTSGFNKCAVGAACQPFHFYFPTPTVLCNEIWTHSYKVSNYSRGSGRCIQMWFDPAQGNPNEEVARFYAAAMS

T5 sequence (P15328 25-234 limits assumed): as the sequence (P15328 25-234) above
T6 sequence (P35846 25-232 limits assumed): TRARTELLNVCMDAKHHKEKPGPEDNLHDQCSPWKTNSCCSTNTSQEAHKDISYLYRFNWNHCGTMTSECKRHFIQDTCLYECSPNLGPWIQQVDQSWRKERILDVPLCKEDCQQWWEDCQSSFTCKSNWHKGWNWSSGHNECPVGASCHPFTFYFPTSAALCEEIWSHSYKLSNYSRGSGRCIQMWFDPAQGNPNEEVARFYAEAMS

Binder | EC50 [1] [nM] | EC50 [2] [nM] | EC50 (read off the curve) [3] [nM] | EC50 (read off the curve) [4] [nM] | binding result [5] | binding result [6] | Kd [7] [nM] | koff [7] [s⁻¹] | kon [7] [M⁻¹ s⁻¹] | koff [8] [s⁻¹] | kon [8] [M⁻¹ s⁻¹] | binding result [9]
B1 | 0.11 | 0.06 | ~0.09 | ~0.1 | – | – | – | – | – | – | – | –
B2 | – | – | – | – | no binding | no binding | 2.29 | 0.000379 | 166000 | 0.000267 | 215000 | no binding (tested: 200 nM)
